Measurements taken from publication PMC4890538 (Angewandte Chemie (International ed. in English), 2015).

What was measured:
[1] = target: T1, IL17-F (Interleukin member of the highly homologous IL-17 family) (UniProt Q96PD4 31-163)
T1 sequence (looked up): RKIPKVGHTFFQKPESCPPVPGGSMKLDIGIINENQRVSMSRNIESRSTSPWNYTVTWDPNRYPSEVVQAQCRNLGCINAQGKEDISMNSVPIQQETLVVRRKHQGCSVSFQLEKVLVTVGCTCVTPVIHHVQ

[2] = target: p-Akt2 (phospho serine / threonine kinase) (UniProt P31751 1-481)
[3] = target: L1R, vaccinia virus L1R myristyl protein (vaccinia virus, UniProt P07612 1-250)

B1: Cy(RRATS-click) (peptide)
peptide: RRATS
EC50 [1]: 66 nM

B2: Cy(YYTYT-click) (peptide)
peptide: YYTYT
EC50 [2]: 122 nM

B3: Cy(DARNI-click) (peptide)
peptide: DARNI
EC50 [3]: 875 nM
